Assay results taken from the supplement of paper PMC12636428.

system: Saccharomyces cerevisiae; experiment: transcriptional activation domain activity (GFP:mCherry ratio, weighted mean of sorted bins, harmonized to initial dataset scale) (arbitrary fluorescence ratio units); higher = stronger transcriptional activation; conditions: beta-estradiol 1 µM; induction time 4 h
In short: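 After a 1:5 dilution into SC with 1 uM beta-estradiol and 4 hours at 30 °C, yeast diploids carrying a GFP reporter and URA3-integrated barcoded tiles were sorted into 8 bins by GFP:mCherry ratio. The tiles were fused to an estradiol-inducible synthetic transcription factor. Barcodes were sequenced, tiles below 50 reads were discarded, and activation activity was taken as the read-weighted mean of bin median fluorescence, averaged across barcodes and linearly mapped onto the initial dataset scale.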

Row | Sequence | transcriptional activation domain activity
1 | MEWMGGWLVLGGWIYLFCSVMFKLDRLVVFLEVFFFYLLLCVIVLVMGLVVML | 38800
2 | RGGGGGGKRGSRAGSGIAADSKEKGNDGEVKLKDKEKGRSKEKKSGKEGGGAA | 35900
3 | MDPGLFLMVLLWLSLPLSIVPWNLPMNWCFQSCDTIRPYQARLSGFFLLLLFQ | 48600
4 | KWLGECLNAAIAVFLYIYFLLHVGLLHLSHFFFFFFDLFSPVYTLSLQMVLYL | 53800
5 | MADENNTAAAVGERNVPRQKQKRVFQTRARTGCQRCRARRRKCDEAKPRCARC | 35200
6 | RDEAGGGARRESKKAGARRGRTAEKRGGRGHEGRRQEGGKATKAEGGAEGEGE | 46500
7 | AVDESSSEVKPAEPKADEGKPETASEENTAEASKPEAPKAEEANAEETAPAEG | 51300
8 | RNMRALRKTWQSSASEDGGGGGEGDEHPHLEDLEYTSREWGAFAQGLKLLAVS | 70800
9 | EQAEKEAAAEKATPKEAAAKEESPKEESPKEESPEKKEVKKPVKKTPTKKNAK | 27100
10 | HQLGLVMLGMRCDLMRWMVCMDGIEYAGDIVIYCPALLLQLQCIVHTYGWAAR | 41700
11 | MLLNLRGHIDEHLQYIIATSFKLMDTAETFALRLANLEVLINTVLYNAAAALH | 48600
12 | HLGFRYWLLSATEIVNTIFLPSVIAYLYTVYIRFLLTYWLSYAIIAGSFMILF | 53000
13 | RLYLKGVVLTLWSLDTIHLICVCHALYWYLITNFLNAFVLEKLAWYRGWCPSH | 68600
14 | FEFQHTRLYMAFRELEGKLLPCLIEANGLDLVIATLLSVVEKVTEVSNIRLTS | 35600
15 | PAAGGFGATSTPAPAAGGFGGFGATAAAAKPAVGGFGGLGGGASAAPATTLTS | 23300
16 | IGSLLCERADVIARLVSYLLRRYAIDGFRTILLWLNDWPVGLKLNYHLASHFC | 56800
17 | LEHVVLLLYCISAVVLQTRYGSVPIGWIEERPITIGFTMAFSGALRDCLMYAA | 56400
18 | IWRRQQVELWCNYRVPGRQWLFGHKRLRHVIHLIPGRTHLSLYSSVDRIFCLH | 48600
19 | MLPTLRMLLGLICIAFLNRHCYGYSSRQMPMFAEAACFRIAHVLSPASAVYYP | 59700
20 | IQDLVFSIIGWFCFGGYTGYNIIQYVNMFGFAEWRRTLPVLYQLMYFNVWMSL | 62900
21 | ELKKFADGVDRERKERAKSANGCCGFCGREEEALPKCGRCKETRYCSPSVRAC | 33000

Row | Sequence | transcriptional activation domain activity
22 | ERRMGTCRSFHLRVGLPQLYAARLLIKASLDVRRLSVWQLGQLVWSIQKFSRQ | 32200
23 | RQCMLYLIAYFMLQETFGTYFNVTGILQNEYYRPSFGLLPLLMRARIIHYSPL | 34600
24 | MVLPYVLFNNTRQLLKVWYESLKAIVLLYQKIKIIFRYIFMYTLASLLLLFYF | 45300
25 | MSNTYRFVMEEPAEAGKGQQKKRARLVTACDNCRNKKIKCLRTPVSGTCESCK | 27900
26 | DWESIGAASLRNNSLAPNIDSVASSTNGVVSPKPTNPSFTNSQNGDIEPPLQH | 46900
27 | PFGFLTDEVKNSYLRCSYKWSFHHIPNLLIAIRERRLDPLLIWAMLAITVRFS | 79500
28 | PAPKKRAPRKRKANAATVEGEAEDNEAEGAAAAAPPKKRARTRKAAAAAAEPS | 41700
29 | LFFHILFPFFFFFQFLFSLFFFSFFFHSFFFLYFLFFPGGFFFQFCCFFFPSF | 44800
30 | DDLLVCVAQVVDICYSVFFWFPGIQFQPRPPPLPPIINLWASNILMYTILWIS | 60700
31 | MDGGLFCVSISLVHFLLLLFPSHPLILRLIFLLFTFHFPVRLYFNFVLLQLLT | 67900
32 | RELEKREREREEREREERERELEKREREREQRGRELEKRERRGRRGSESWRRG | 26100
33 | KGKSKERKTESASTSGSEAKESEAAPKEEKEDAKKEDDKKEKAEEKTEEKAEE | 51500
34 | KKGGKAAKSADRPPSRSRLEEEYVFIDVVSSFLRAIRARVIHIRHGAIVLAHY | 64100
35 | KQGQEVEFKPERGVGDLVLKVTGRKRGYRAEERRSNSLRAQLVISHAVPLAVT | 60200
36 | ADEEDADEEDADEEDAGEKDAGEKDAGEEGAGEEDAGEEDASAIDAAACRMVQ | 29800
37 | TPNNLTSFDDCHLIDGLELTYSDLLVLDDFLAFDFLGLDHFIFMVTPPWENVV | 81000
38 | LCPLFPPCFLVLHHILGFLYPRFFLFVFSLVDCLLYFSLSFLVCVRFCLCLGL | 78000
39 | CVWVYTEIFPEFVWLLIFKLLKSMPEMTRRTGIVVIRSLVSCGIQIGDTFTHK | 50600
40 | TWKVIGLVWRCPELTEYLNKVILTIIIIRSESHFDSSIAALNESCLTPYGTVD | 28800
41 | GQHEGLDKLREYHEHVLDRILFALLLRKRQKPVMKLLEEIFTLVLKFSKYSSA | 59400
42 | EDGRGSRRRKSRSRGREEEDSSSRRRKDRSRSRSVDKERKKRKRDKSEDRKAR | 31800

Row | Sequence | transcriptional activation domain activity
43 | MYECACFPFPFFLSFFFFLSSFSYGCPFCFVGYRFPLLPLLLSVFLFLGLCLM | 33800
44 | EKGNKRNDEEKGRGGEGRSTGRERREAKNGSAEGEGRERKQRRDGGEAGEGGT | 45400
45 | EMGTLAALLWQPEIRDLTTYLRDIRVAVANVLDVFAMIEPSRLIAKIKIHLLA | 43100
46 | GKKRRRSSSSSSSSSGSSSSGSSSSSGSDSESDSSSDSSSSSSNSSRSSGSRS | 24900
47 | DSKDKREKFRSRMVVLKSRLLFGVCDPYGVLEEGEVYVRVSVPRMGASTLKNT | 67500
48 | ETCGRCRGQGVVIQKAQLAPGIFQQMQMQCDQCGGQGTQIKHRCKVCGGARVV | 52100
49 | RKNNKREVKVEAREPHHKGRKNNKREVEAVEEVEARDPHHKGRKNNNREVEVE | 28300
50 | RAYGLLKRYILVPATFGYRCAQNIGWCTIPPRVQSLTIFAFVILNLILCCISY | 58000
51 | KGGRKCKKGRAGEEAGMPARRRKGGERGGRGGKTGARGGEEGGGGEGGAARNG | 34800
52 | MSIFFSVIPPFFSFLPLMLFFFFFLGCLGNGSTFFVSTLLWMGGSIGLLSFYS | 55600
53 | GKRARGVGKLRPSVVLYNELHKDGEGVGEVARRDLVGSSKGKGRSGVDTLLVV | 59800
54 | LPFYFFLHCTLSMIPSIHSPSFLQSYICFMLIPPLPLMFIVVFHPLYFFWLFL | 15000
55 | AVPCVVIVRNSLLIIILLPLELPLVMYVGSSNDCRGILLFYLFWFWSLRAIAV | 68600
56 | MADAITESTAKLQLDEETGEMVSKGELKKRLAKRAKKAAQAKAKAEAPAPLAT | 36300
57 | EEEYEEEEEEEYEEEEDEEEDEDEEEGGEGEEEDEVKAQRGRRAATAPARARR | 28000
58 | QLNLVNHFYQFSLHFFLDIFDYILHHNPNLKGVTDYPTRRAILLNDLFLVVYR | 58200
59 | SPSSGLNINFFYHEVLMVLSLFNSMTRPDVMRWYAKTRFYHIVNLTAWQIYPC | 57400
60 | NWYWLASTMYFLYGESVIYYFKHIVLVDKVLLPLATHHRFISFVLYVIGFVFF | 74800
61 | ICLALCTVLTTLTLGVSLYFGVVLVRSDFLWQVSFRDLTWSYFVAFGAQVIVD | 41100
62 | SIDSAAHHDNSTIPLDFMPRDALHGFDWSEEDDMSDGLPFLKTDPNNNGFFGD | 69800
63 | ARKAFLLIEHMLELEGPPLIWNLLEILHNIMHLKQGRLFNMLIIHLMSLARSH | 67400

Row | Sequence | transcriptional activation domain activity
64 | MSDHRIIIVLAFFLIFFFNPPPLPLPTYPYQYSLLTYSLFFEPFFFSFPFFFS | 63100
65 | TKFYPNKSIETQLMKNKYCDVVHLTRYAAWSNNKKDQDTSSQPLIDEIFGLYS | 61500
66 | GSAFGQSAFGKPATGAFGAPTSAFGSNTTTNNNTTTTSSAFGSSTATSAFGSA | 14300
67 | SGGEGTRRRASGRGRGRGRGRNGRGARAARGDGEKKEGETTEAAAPTSGETPA | 34800
68 | MGLRTTPDYQKVEFTVTDIGLILKTLWICADLITFLFPLQRLVFHALVLLFSF | 62300
69 | MFCLRSWLPLLFIPTNASPVFIFLFFVCTYFLNRPCVYCSFLLLILFMTSCNW | 62500
70 | ENNNYAVDLAKSNGMHIVGIQGSDIVDGRKTLVLGLVWQLMRLSIYKTLSSLT | 41900
71 | IEAEEAEEIGVEHLLRDIASSSGAPSSTLLTTQSLSTRVAAQLNALQGLRARL | 66900
72 | LQCLLLSVLSPIGLVLLYSHLIGTDLIVIVSQLMFDYQVVQSWFIIFVCLVYW | 57400
73 | PNYEQHPAPAPAPAPGNKPEEHHEEKPEEHHEEKPSYEQHPAPAPAYQANAPH | 19400
74 | MIWREFFLFFLFFFFLFGIYGLRVAGLDYFVYGDLFVIINISYLFFWWVYAIY | 45900
75 | QVGRKANQKEEKETEKERTEKDKKQGRVGVGGVAKTAIVAGAWCYVVGVVAEL | 34600
76 | TRVQDEWVSITKLARQAKESAGKEKKGKGGRGVYSQNSKVWEGVVKLLVAIVA | 46300
77 | ISTAYFSNECGLVDRLITLAFLALKSKTDMSMVAYHSYCAIIEASLHSRGIWN | 57300
78 | RRVWLKYILYFVYGIVDWVYSTSLLKTMVWLRLPLYITVGKHVLVGLVGSMWV | 50000
79 | VACAVLIAVSIFATIYVVLTSLPVIFQQCPFQTPLSSIIWYLGHLLVIASLSL | 28400
80 | MSYGKRDEDAELGLVKVDRTQVFQEARLFNSSPIQPRKCRILLTKIALLLYTG | 24100
81 | MSEPPRKRAKLACVTCNARRVKCDVTDRHPCTNCAAGNVECETRESRRGKHVR | 14300
82 | MLRCVFFLYCFLLVTFFSSRRVLVCAGAYLSSSYPLMPDCQYWVYFAFLRCFS | 52400
83 | GGGSEERGGRGRQEGGKDREAGGRERGSAGEREETEGGTGAEGGGGGERRQGE | 32300
